We go through four molecules from patent US20060150259A1, “Model of bone disease amenable to high-throughput screening” (priority 2003, published 2006).

Data set [1] deals with zebrafish larvae (bone formation). The data set can be described thus: Anabolic bone screen in zebrafish larvae. As to conditions: for anabolic effects (promoting bone), dose/response: 3 d.p.f. to 8 d.p.f., range of concentrations. The class given is in vivo. As for the experimental part: A 1 mg/ml stock of parathyroid hormone (PTH) (Sigma) was made in 20 mM NaH2PO4 and 2.13g/L mannitol. A […] stock of cholecalciferol (Vitamin D)(Sigma) was made in dH2O. […]
(§1) Embryos and larvae were fixed in 4% paraformaldehyde (PFA), then labelled with alizarin red as described herein. In vivo labelling was achieved by rearing fish in 0.05% alizarin red in embryo medium.
(§2) Stained larvae were mounted on depression slides and visualised by fluorescence microscopy on a BX51 microscope (Olympus) and images were captured using a ColorView camera and AnalySis software (Olympus). The intensity of and area of alizarin red fluorescence was quantified for each treatment group, with a minimum of 5 samples per group, using colour threshold and area measurements in AnalySis (Olympus). Mean values and standard deviations were calculated using Excel software (Microsoft Office).
In addition to screening for the rescue of osteoporosis, we observed that anabolic bone effects could also be detected.

Data set [2] has as its system zebrafish larvae with prednisolone-induced osteoporosis. The data set is described as follows: Rescue of prednisolone-induced osteoporosis with etidronate in zebrafish larvae. The class given is in vivo. The protocol:
1) Osteoporosis was induced with prednisolone as described above.
2) Etidronic acid (Sigma H6773) was made up as […] stock in embryo medium.
3) Osteoporosis was rescued by co-administration of etidronic acid and prednisolone from 3 d.p.f. to 10 d.p.f.
A 10 mg/ml stock solution of etidronate (Sigma) in embryo medium was used in all prednisolone rescue experiments. The pH of the solution was adjusted to pH 7.5 using NaOH. The stock was stored at 4° C. for a maximum of 2 months. […]. OP was induced by exposure of larvae to 10 ug/ml prednisolone from 3 d.p.f. to 6 d.p.f. At 6 d.p.f., medium containing 10 ug/ml prednisolone was removed and replaced with 10 ug/ml prednisolone in combination with etidronate.
as §1, §2
A dose/response study was performed using larvae exposed to varying doses of etidronate in the presence of prednisolone (at 10 ug/ml) from 3 d.p.f. to 9 d.p.f. Samples were stained with alizarin red and the area of stained tissue was quantified using AnalySis software. The average stained area was calculated from five samples at each concentration and plotted as a mineralization index.

Another data set deals with zebrafish larvae. The data set can be described thus: Toxicity / viability of zebrafish larvae in embryo medium containing compound.
The test system of another data set is zebrafish. The data set is described as follows: DMSO tolerance of zebrafish. Type of data set: in vivo. As to conditions: added to the fish water. From the text:
Moreover, the inventors have discovered that zebrafish are also DMSO (dimethyl sulphoxide) tolerant. This is important as DMSO is used as a solvent to dissolve many drugs. The inventors have established that zebrafish can tolerate 1% DMSO. Thus, a candidate drug or other test substance may be dissolved in DMSO and administered to zebrafish by adding to the fish water to give a final concentration of DMSO of at least up to 1%. This is employed in various preferred aspects and embodiments of the present invention.

Entries after “also recorded” stand apart in the source; their conditions may differ.

Consider `C=C1CC[C@H](O)C/C1=C/C=C1\CCC[C@]2(C)[C@@H]([C@H](C)CCCC(C)C)CC[C@@H]12` [Cholecalciferol, cholecalciferol, reference compound], for which the “anabolic effects (promoting bone), dose/response” value in data set [1] is given as “clear dose/response in relation to promoting bone”.
`CC(O)(P(=O)(O)O)P(=O)(O)O` [etidronate, Etidronic acid]: the “rescue of OP phenotype in wholemount skeletal preparations (amount of staining)” value in data set [2] (etidronate 10 ug/ml with prednisolone 10 ug/ml) is “rescue is readily observed; also recorded: clear increase in the amount of staining”. Moreover, the “dose/response, fluorescence intensity in stained bones in vivo” value in data set [2] (increasing doses of etidronate in the presence of prednisolone) is recorded as “correlated with recovery from OP”. Also, the “dose/response, area of stained tissue (mineralization index)” value in data set [2] (varying doses of etidronate with prednisolone 10 ug/ml, 3 d.p.f. to 9 d.p.f.) was “clear correlation between increasing doses of etidronate and rescue of the OP phenotype”. The viability of larvae result in the data set on zebrafish larvae (5 ug/mi etidronic acid co-administered with 10 ug/ml prednisolone) and with zebrafish larvae (10 ug/ml etidronate co-administered with 10 ug/ml prednisolone) was “viable beyond 10 d.p.f” each time.
For the molecule `C[S+](C)[O-]` [DMSO, dimethyl sulphoxide], the “DMSO concentration tolerated by zebrafish” value in the data set with zebrafish was determined as 1%.

B1: parathyroid hormone (peptide, UniProt P01270 32-115, looked up)
Parathyroid hormone: SVSEIQLMHNLGKHLNSMERVEWLRKKLQDVHNFVALGAPLAPRDAGSQRPRKKEDNVLVESHEKSLGEADKADVNVLTKAKSQ
modifications: Parathyroid hormone
notes: parathyroid hormone (PTH) (Sigma)
As to B1, the Summary of effects result in data set [1] (40 ng/ml, Continuous, 3 d.p.f. to 8 d.p.f) is listed as “Anabolic effect”; in data set [1] (100 ng/ml, Continuous, 3 d.p.f. to 8 d.p.f), “Mild catabolic”; in data set [1] (200 ng/ml, Brief, 6 hours on 5 d.p.f, effects noted on 8 d.p.f.) it was “Strong anabolic”; in data set [1] (200 ng/ml, Continuous, 3 d.p.f. to 8 d.p.f), “Strong catabolic”. Besides, the effect on bone result in data set [1] (200 ng/ml, administered for 6-8 hours and then removed from the medium) is recorded as “anabolic effect”; in data set [1] (206 ng/ml, administered continuously from 3 d.p.f to 9 d.p.f.), “catabolic effect”; in data set [1] (doses up to 100 ng/ml, administered continuously from 3 d.p.f to 9 d.p.f.) it was “anabolic effect”. Further, the “anabolic effects (promoting bone), dose/response” value in data set [1] is given as “clear dose/response in relation to promoting bone”.
